Source: US20240287172A1 (SCIRHOM, published 2024)

Target: T1, hiR2-FL-L539A-T7 (human, UniProt Q6PJF5 1-856)
T1 construct: on MEF-DKO cells
T1 sequence: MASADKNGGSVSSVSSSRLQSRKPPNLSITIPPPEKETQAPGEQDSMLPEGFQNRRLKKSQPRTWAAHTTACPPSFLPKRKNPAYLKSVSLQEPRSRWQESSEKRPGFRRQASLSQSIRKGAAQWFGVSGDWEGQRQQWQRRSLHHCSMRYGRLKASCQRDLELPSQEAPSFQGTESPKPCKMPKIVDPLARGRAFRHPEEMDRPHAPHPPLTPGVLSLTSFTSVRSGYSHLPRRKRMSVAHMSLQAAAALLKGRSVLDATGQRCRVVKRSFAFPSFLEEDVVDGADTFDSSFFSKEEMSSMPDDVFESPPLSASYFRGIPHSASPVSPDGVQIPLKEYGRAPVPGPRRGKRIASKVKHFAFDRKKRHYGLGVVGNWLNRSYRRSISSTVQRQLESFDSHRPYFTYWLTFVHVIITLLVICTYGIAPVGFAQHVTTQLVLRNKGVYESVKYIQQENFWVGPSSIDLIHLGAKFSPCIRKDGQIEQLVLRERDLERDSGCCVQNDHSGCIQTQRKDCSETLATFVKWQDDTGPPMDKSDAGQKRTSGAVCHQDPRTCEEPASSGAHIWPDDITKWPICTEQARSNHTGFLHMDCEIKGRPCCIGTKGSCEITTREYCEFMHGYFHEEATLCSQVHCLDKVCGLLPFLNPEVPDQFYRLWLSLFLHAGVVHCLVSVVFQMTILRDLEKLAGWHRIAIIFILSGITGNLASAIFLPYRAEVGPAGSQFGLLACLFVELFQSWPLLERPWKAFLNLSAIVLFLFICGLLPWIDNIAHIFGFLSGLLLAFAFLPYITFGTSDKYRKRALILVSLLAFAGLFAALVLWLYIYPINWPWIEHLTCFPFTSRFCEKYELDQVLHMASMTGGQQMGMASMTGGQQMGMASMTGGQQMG
Assay: FACS, MEF-DKO cells, 3 µg/ml

Binder	loss of binding vs wild type [%]
antibody 34 (antibody, V domains shown, mouse IgG, kappa light chain; also called clone #34; purified antibody 34) VH: QVTLKESGPGILQPSQTLSLTCSFSGFSLSTFSLGVGWIRQSSGKGLEWLAHIWWDDEKYYNPALKSRLTISKDTSKNQVFLKIANVDAADTATYYCARAYYSKSYYALDYWGQGTSVTVSS VL: DIQMTQSPSSLSASLGERVSLTCRASQEISGYLSWLQQKPDGTIKRLIYAASTLDSGVPKRFSGSRSGSDYSLAISSLESEDFADYYCLQYANFPFTFGSGTKLEIK	≥ 95
antibody 16 (antibody, V domains shown, mouse IgG, kappa light chain; also called clone #16; purified antibody 16) VH: QVTLKESGPGILQPSQTLSLTCSFSGFSLSTFALGVGWIRQPSGRGLEWLAHIWWDDDKYYNPALKSRLTISKDTSKNHVFLKIANVDTADTATYYCARITTYYYGMDYWGQGTSVTVSS VL: DIVLSQSPATLSVTPGDSVSLFCRASQSIGNHLHWYQQESHASPRLLIKYASQSISGIPSRFSGSGSGTDFTLSINSVETEDFGMYFCQQSYNWPLTFGAGTKLELK	≥ 30
antibody 3 (antibody, V domains shown, mouse IgG, kappa light chain; also called clone #3; purified antibody 3) VH: QVTLKESGPGILQPSQTLSLTCSFSGFSLTTFAMGIGWVRQPSGKGLEWLAHIWWDGEKYNNPVLKSRLTISKDTSKNQVFLRIANVDTPDTATYYCARISSIYYIIDNWGQGTSVTVSS VL: DIVLTQSPATLSVTPGHSVSLSCRASQSISNNLHWYQKKSHESPRLLIKYVSQSISGIPSRFSGSGSGTDFTLSINSVETEDFGMYFCQQSYNWPLTFGAGTKLELK	≥ 95
antibody 48 (antibody, V domains shown, mouse IgG, kappa light chain; also called clone #48; purified antibody 48) VH: QVQLQQSGTELVRPGTSVKVSCKASGYAFTNYLIEWVKQRPGQGLEWIGVINPGSGFTKYNEKFKGKATLTADKSSSTVYMHLSSLTSEDSAVYFCARGLYRAMDYWGQGTSVTVSS VL: DIQMTQSPASQSASLGESVTITCLASQTIATWLAWYQQKPGKSPQLLIYGATTLADGVPSRFSGGGSGTKFSFKISSLQAEDFVSYYCQQLYSTPYTFGGGTKLEIK	≥ 30
antibody 5 (antibody, V domains shown, mouse IgG, kappa light chain; also called clone #5; purified antibody 5) VH: QVTLKESGPGILQPSQTLSLTCSFSGFSLSTFGMGVGWIRQPSGKGLEWLAHIWWDDEKYYNSALKSRLTISKATSKNQAFLKIANVDTADTATYYCARISNYGSNYWYFNVWGTGTTVTVSS VL: QVVLTQSPALMSASPGEKVTMTCSAGSSVSCMYWYQQKPGSSPRVLIYDTSNLASGVPARFTGSGSGTSYSLTISRMEAEDAASYYCQQWNSYPLTFGAGTKLELK	≥ 95
antibody 43 (antibody, V domains shown, mouse IgG, kappa light chain; also called clone #43; purified antibody 43) VH: QVALKESGPGILQPSQTLSLTCSFSGFSLSTFGMGVGWIRQSSGKGLEWLANIWWDDDKYYNPALKSRLTISKDASKNQAFLKIANVDTADTATYYCARIGNYGSNYWYFDVWGTGTTVTVSS VL: QIVLTQSPAIMSASPGERVTMTCSANSRISYMYWYQQKPGSSPRLLIYDTSNLASGVPVRFSGSGSGTSYSLTISRMEAEDAATYNCQQWSSYPLTFGAGTKLELK	≥ 95
antibody 44 (antibody, V domains shown, mouse IgG, kappa light chain; also called clone #44; purified antibody 44) VH: QVTLKESGPGILQPSQTLSLTCSFSGFSLSTFGMGVGWIRQPSEKGLEWLAHIWWDDDKYYNPALKSRLTISKDTSKNQIFLKITNVDTAETATYYCSRIGNYGSNYWYFDVWGTGTTVTVSS VL: QIVLTQSPAVMSASPGEKVTMTCTASSSVYYMYWYQQTPGSSPRLLIYDTSNLASGVPVRFSGSGSGTSYSLTISRMEAEDAATYYCQQWNTYPLTFGAGTKLELK	≥ 95
antibody 42 (antibody, V domains shown, mouse IgG, kappa light chain; also called clone #42; purified antibody 42) VH: QVTLKESGPGILQPSQTLSLTCSLSGFSLSTFGRGVGWIRQPSGKGLEWLAHIWWDDEKYYNPALKSRLTISKDTSKNQVFLRIANVDTADTATYYCARIQNYGSNYWYFDVWGTGTTVTVSS VL: LIVLTQSPAIMSASPGEKVTMTCGATSRISYMFWYQQKPGSSPRVLIYDTSNLASGVPVRFSGSGSGTSYSLTISRVEAEDVATYYCQQWNSYPLTFGAGTKLELK	≥ 95
antibody 22 (antibody, V domains shown, mouse IgG, kappa light chain; also called clone #22; purified antibody 22) VH: QVTLKESGPGILQPSQTLSLTCSFSGFSLSTFGMGVGWIRQPSGKGLEWLAHIWWDDEKYYNSALKSRLTISKATSKNQVFLKIANVDTADTATYYCARISNYGSNYWYFNVWGTGTTVTVSS VL: QVVLTQSPALMSASPGEKVTMTCSAGSSVSYMYWYQQKPGSSPRVLIYDTSNLASGVPARFTGSGSGTSYSLTISRMEAEDAATYYCQQWNSYPLTFGAGTKLELK	≥ 95
